Source: article PMC7099005, “Function-based high-throughput screening for antibody antagonists and agonists against G protein-coupled receptors” (Communications Biology, 2020)
Substitutions are numbered along the chain they refer to. Values belong to the binder of their own block, whether it stands above or below them.

What was measured:
[1] = target: T1, human apelin receptor (APJ), wild type (Homo sapiens, UniProt P35414); experiment: flow cytometry on cells; 2 x 10^5 HEK293FT cells stably expressing HA-tagged huAPJ or its mutants stained with 250 nM soluble sdAb at 4 °C for 1 h; mouse anti-his antibody and Alexa Fluor 488 goat anti-mouse; sdAb GeoMean relative to anti-HA staining, normalised to WT APJ; details: one partner purified
T1 construct: The functional assays used other APJ cell lines (PathHunter CHO-k1/APJ, U2OS AGTRL1, Tango/APJ with a C-terminal TEV site and transcription factor); this molecule stands for them in the functional rows; also called huAPJ; WT APJ

[2] = target: T1, human apelin receptor (APJ), wild type; experiment: cell-based or functional assay

T1 sequence (P35414 whole entry): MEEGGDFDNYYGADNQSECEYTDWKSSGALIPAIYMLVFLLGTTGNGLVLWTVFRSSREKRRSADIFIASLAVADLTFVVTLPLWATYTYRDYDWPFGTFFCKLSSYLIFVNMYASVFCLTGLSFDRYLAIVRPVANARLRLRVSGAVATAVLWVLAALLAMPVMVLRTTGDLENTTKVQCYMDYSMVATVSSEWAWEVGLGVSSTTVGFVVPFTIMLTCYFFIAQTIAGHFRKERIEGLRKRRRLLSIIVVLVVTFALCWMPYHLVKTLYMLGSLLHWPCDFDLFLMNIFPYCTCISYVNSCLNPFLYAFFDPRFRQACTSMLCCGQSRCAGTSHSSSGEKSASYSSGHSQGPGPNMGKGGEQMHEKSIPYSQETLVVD

binding result [1]: binds
B2: sdAb antagonist JN404 (VHH)
VHH: QVQLVESGGGSVQAGGSLTLSCVGSGFSWSLNCMSWFRQAPGSEREGVAIFYSETGGAYYADSVEGRFSISQVNAGNTVLLRMNSLRPEDTAMYYCAAGYGCGSTESWWTYDYIFWGQGTLVTVSS
notes: camelid sdAb from a camel immunised with human APJ nanodiscs; source: FreeStyle 293F, transient (pTT5), purified (Ni-NTA)

IC50 of soluble sdAb in APJ PathHunter β-arrestin assay, antagonist mode (apelin 13 at EC80; blocks apelin 13 with APJ) [2]: < 200 nM
B3: sdAb antagonist JN411 (VHH)
VHH: HVQLVESGGGSVQAGGSLRLTCAASGLAYSRTCMGWFRQAPGKEREVVATIRRDGTTTYADSVKGRFTISRDNTRNTLALQMNSLKPEDSAMYYCAAVWVALGVPTSVCPSEYKFWGQGTLVTVSS

IC50 of soluble sdAb in APJ PathHunter β-arrestin assay, antagonist mode (apelin 13 at EC80; blocks apelin 13 with APJ) [2]: < 200 nM
B5: sdAb antagonist JN413 (VHH)
VHH: DVQLVESGGGSVQSGGSLRLSCAASGSTYRSHCMGWFRQAPGKEREEVAIMTRSRGTSYADSVKGRFTISQDNTKNILYLQMNSLKPEDTAMYYCAAVPRAGIGDGAYCKWNMKDSGSWGQGTLVTVSS

IC50 of soluble sdAb in APJ PathHunter β-arrestin assay, antagonist mode (apelin 13 at EC80; blocks apelin 13 with APJ) [2]: < 200 nM
B8: sdAb antagonist JN406 (VHH)
VHH: EVQLVESGGGSVQSGGSLRLSCAASGSTYRSHCMGWFRQAPGKEREGVAIMTSRGTTYADSVKGRFTISQDNTKNIFYLQMNSLKPEDTAMYYCAAVPRAGIGDGAFCKWNMKDSGSWGQGTLVTVSS

IC50 of soluble sdAb in APJ PathHunter β-arrestin assay, antagonist mode (apelin 13 at EC80; blocks apelin 13 with APJ) [2]: > 200 nM
B10: sdAb antagonist JN401 (VHH)
VHH: HVQLVESGGGSVQSGGSLRLSCVASGITFSLYCMYWFRQAPGKEREAVASIRSTGATVYGDSVKGRFTISRDSAKNTLYLQMNSLNPEDTAMYYCAAAKKMLYGPGCGSYKDWGQGIQVTVSS

IC50 of soluble sdAb in APJ PathHunter β-arrestin assay, antagonist mode (apelin 13 at EC80; blocks apelin 13 with APJ) [2]: > 200 nM
B11: sdAb antagonist JN409 (VHH)
VHH: QVQLVESGGGSVQSGGSLRLSCAASGDTSSRSCMGWFRQAPGKEREWVGRILNAGITSYADSVKGRFTISQDNVKNTLYLQMNSLNSEDTAIYYCAAGRTSYAGSWYCRYNYWGQGTQVTVSS

More lines, now with the values behind:

B1: sdAb agonist JN300 (VHH)
VHH: HVQLVESGGGSVQAGGSLRLSCAASGYVGSMGWFRQAPGKDREGVAAFDFDGRAKHADSVKGRFTISRDNAKNTLYLQMNNLKPEDTAMYYCARSARQLLMLSHNPSDFGYWGQGTQVTVSS
notes: as for B2
binding result [1]: binds

B4: sdAb antagonist JN400 (VHH)
VHH: B5 VHH with D1Q, A107G
IC50 of soluble sdAb in APJ PathHunter β-arrestin assay, antagonist mode (apelin 13 at EC80; blocks apelin 13 with APJ) [2]: < 200 nM

B6: sdAb antagonist JN414 (VHH)
VHH: B5 VHH with D1Q, R19T, R30S, E47G, I50L, G104E, D105S
IC50 of soluble sdAb in APJ PathHunter β-arrestin assay, antagonist mode (apelin 13 at EC80; blocks apelin 13 with APJ) [2]: < 200 nM

B7: sdAb antagonist JN402 (VHH)
VHH: B5 VHH with D1Q, S14A, R30S, I50L, S54A, G104E, D105T
IC50 of soluble sdAb in APJ PathHunter β-arrestin assay, antagonist mode (apelin 13 at EC80; blocks apelin 13 with APJ) [2]: < 200 nM

B9: sdAb antagonist JN412 (VHH)
VHH: B8 VHH with E1H, S14A
IC50 of soluble sdAb in APJ PathHunter β-arrestin assay, antagonist mode (apelin 13 at EC80; blocks apelin 13 with APJ) [2]: < 200 nM
